Test results: the DeepSol protein solubility set

Test: soluble on expression in E. coli; label from the status in PepcDB or PDB records

| Sequence | soluble on expression in E. coli |
| --- | --- |
| MGSDKIHHHHHHMNALTWLTKHSQAVIFRKKLAGLTACSQMIELSTPLNDGQRKFIFRQQSARATLLAINYAQEAYILQHLDALPFTPKVYYQTANSSLLTWLEGKPATAFDPDLLEQLALQLATLHAYPLPKQRTILQLAERCQLLWDRLTPSQQHQLNFCPPFKKIEPLQLAICHHDLHLANLIQHQQQLFIIDWEYSAISDPVLEIALFFQANTLNSVQKQFFLTTYLSKINLNEPLFKQKMAEYTPAIQQLSQLWYALSEAIT | not soluble |
| MGSDKIHHHHHHSCDGMDATYKEFIEEGPIVYIGKVDSLKAYAGRNRAMLEWQKLLDPRAKTAKIFWENRTRSTELQLTDKAGLTQVIVKDLAEGSYVFEVCTYDTHGNSSIMSEVPCTVYGDVYEKLLFNTKVKTAVLKNDVLTITFAASLEPTFFGSEITYTSIDGGDKTVILKAPETQIKIDDFAGDRIIYRSVYLPEETAIDYFYSESDEFEIK | not soluble |
| MSLICKRFALVGSGFIGQVHAASLARHEGSALTMVADAAPERAQALAARYGARAVTVSEAIHSDAIDAVLIASSTPSHAELLEAAARAGKAVYCEKPIDLSLARAREVVERVLPLNVPVTVGFNRRFDSSHQQLRRQLEQGLIGRVELVQMVCRASSMPPLDYLRSSGGQMRDQAIHFFDLLRFLTGDEVRTVAAMGAALALPDIAEFGDVDTSILMMQMRGGALAQLDNTRRTGHGYDERITLLGAEGALESGSQSPAGPTLWRGNQRIEPGLWPDWFSRVQGSYYQHLDAFIRSLNGETVADLPGLLDGLQAQAIAEAAVQSLQHGQFVAVDDEGHHHHHH | soluble |
| MSLKKILILFFSIILSLGMVSCSSSGDYKNVSTSKIKKALKSSDLLIKESKIFDAKDFNYFNDVEEDIIQGFVINSSEKLSLEDIIVIKTDEVDKIYKTLENYKKDMIQAPFGEGHGEKINSEIANNTIIEKAGRYVYLISAENATQIENKILNIIKEGHHHHHH | soluble |
| MGSDKIHHHHHHGNDDFPAEEPKVPLEITSAFVTGDVQTRAVTPELLTSGSIGVFLEGRSGTGYDKKDNIQYDYNVGWKPKTETIYLGGEDADVCAYKKTTKLDLSAKEAVPLVSQIYDAEIDLVYATNQTVNGTSAGKSVEFTMGHAYSQIEFVFSREDYPNTCKVTEITVENANIIKTATLNLATGGYTPVTVEKVSYWTNVAKHEDGIAVPESGTVKSNVLMIPCTLANAGGTGVTLELKVDGKLMTVPIAHDKLGALTAGVIHQISLKLKGTALEISVKDTPWDNQPVDGEYNPEP | not soluble |
| MGHHHHHHSHMAMRQTPLTCSGHTRPVVDLAFSGITPYGYFLISACKDGKPMLRQGDTGDWIGTFLGHKGAVWGATLNKDATKAATAAADFTAKVWDAVSGDELMTLAHKHIVKTVDFTQDSNYLLTGGQDKLLRIYDLNKPEAEPKEISGHTSGIKKALWCSEDKQILSADDKTVRLWDHATMTEVKSLNFNMSVSSMEYIPEGEILVITYGRSIAFHSAVSLDPIKSFEAPATINSASLHPEKEFLVAGGEDFKLYKYDYNSGEELESYKGHFGPIHCVRFSPDGELYASGSEDGTLRLWQTVVGKTYGLWKCVLPEEDSGELAKPK | not soluble |
| MSLKVLKKEELVPTLYQLFSQAKEKVLVVSAWIRGSIFKELLSLLPENVQLEVIVRAGNLSDMDITDEAFFRETKKKGGRILLNPKLHSKFLIIDERYAVVGSSNITFMGLYPEGNVETNVLIEEKEKVKELLEFYENLKEESVDYTDVVGYAVSSRSPKEAEIVLLEDLKEQTYLGIQGEEFFLCRLSNVSGKKETREDALNRILSSEVWDWKVAALFAHLYERPEIKTGRLEILGEYEKERNLFKTPTKSVESGSLVKKLEPESEELKRILFKNHSGYDMKYPTYLGKLYNTEVKAYLDMDKVLGMHMAVLGTTGSGKTTFVKKILKNFKESEVIIFDIYGEYAQELGAKEVIVENVLMPISVEDVKDYLKEAGSTLEERSTEEKEFFSVFRRALKPDIEATELKEKSFKEIYEEAVKNLHSLHLKQDAQSVYEHLERTYSRGALEQQPKVLKEVVDFLNSEERVKVFNFKEVDITETKVNLTGLILKEIFIRAKKDRKPRLIVIEEAQNVAPERGTGDVPSGKENVAFVYAKKIAMEGRKLNLGLIAITQRPANLSKFILSQLNTQVIFKLITKNDLDAVSPFFEYSKEDIFRLLPFLKPGTAFVSGLAVPFSFLFQMEEIPYYEGHHHHHH | not soluble |
| MSLLIDFIDETEEVKEEYMSLIREVLEKAAQMENIEDGAEVSVTFVDNERIREINRDYRDKDQPTDVISFAMEEMGEGEMEIVGAEMPRMLGDLIISIPRAKEQAEEYGHSFDRELGFLALHGFLHLLGYDHMTEEDEKEMFGRQKEILEAFGLGR | not soluble |
| MSLDIILDQPEQMLFALLRSALNSTKPVSEILFTDISPALWQACYRLACTQGVMALAWDGIQTLPACLQPPKALKLNWAMAVENYEKRYLRYCHTIAELSAFYKTHGITTVQLKGVGLSTYYPIPSHREGGDIDIFTYSADHSRKSDAEANRLADRLMEEKGIEVDFEHSEKHSMFYYKGIPIENHKTFINSETYRIAVKMDKLLQKLLQPVSAELDGKCSILIPSSTFNTVFLAFHAAQHYARGLALHHLCDWACLLNRYDLHIPEEVTDIRFRNMILAMTRLCNDYLGTSVPVYGGEELAEEILREIIRPPYTMSVPAKNKWGILVYKTKRMLHTHRACNSVLRISLCKWVGNSILLHLRSPHTIFQTEREGHHHHHH | soluble |
| MGSDKIHHHHHHMKLKFLGGAEEVGRLGVKITDKDTSVIVDYGVIPEKPPQYPLPPEPVDAMFITHSHLDHIGAVPVYYHKGEPDLYATQMTLNTMKPLLRDALKVTNIEGYPAMFNEDDINSALANMRPARYFESIEVGNMVATPYPAGHIPGSTMWKFEDGISVTVTGDVNTIDTYLINGAKPIKTDVLIIESTYAGKNHESREDVRKRFRDSVKEVIDSGGKVIMPAFAVGRTQELIMTIADMGYDVAVDGMGNDISTIYLNTPGFLRSKKEFLRALSKVRIIKGRNMRENAIRSDIIISTSGMLDGGPVLGYIQKLLEDEKSAIFVTGYQVEGTNGRSLLETGTLTIAGVTVKPKMRVEFFDMSAHAGHDELVNFIKAIDPKKIVLCHGDHRENLLPDLEGYDVLLPYNGKEYEI | not soluble |
| VATLNESIEAGLEPGAVALILEAFPIEDRVRLWRALPLELHIDVLTEMRADVRFSIINALSEVELKLTLAKLDNLSLIEWADSLPESIINEALALIEKDELELYDQANEYEDDELGRWAERKIITLPFNITVGTAKQLMERYSYDTPQQVYLINRNKQFRGAVNYYEILRSDSGVRLKTLEIETVTVLDSKMTLPEAVEALEHSALPALPVTDADQTLIGEVDWQFALSTQREIYEARLMAGTGMDEGDDLFAPVLKSSQKRGV | not soluble |
| MGSDKIHHHHHHMRITNTLTGKKEEFVPIQPGVVRMYVCGPTVYDLIHVGNARPALVFDVFRRYLEYRGYRVIMVQNFTDIDDKIINKANQLGVDYKTVADTFIAEYWRDAHALGIRPANFHPRTTDFVEDIVEIIEKLVEKGFAYQTETGVYFDVRKFEKYGELSKKKIEDLIAGARVEVDETKKSPLDFSLWKKAKPGEPCWKSPWGEGRPGWHIECTVMSVKILGESFDIHAGGEDLVFPHHENEKAQAEALTGKVFARYWMHNGMVRFLGDKMSKSTGNIFTVREAVKRYGRDGLRYMILSKHYRSPMDFSEELLQDYSRAVKRVWEILGRYEKSGDIGIPKRNAVYEEYVNRFVEALDDDFNTPVAVSLIFELARNLSKAMDDNDREDALLYYHLIRREFGPVLGLFDLNEEKKEVSSEELLKLLIEVRDVLRKEKRYDLSDRIRDRLREIGIILKDTPSGTEYTVE | not soluble |
| MDVADSTSETPPVFDHDNLALAAQTNLLQFYLTHLASTLVPPMKLDMRDSMTPSFSQTESPNSETDDSTSAANKVLFSILGTPTTDSTSNAVSKSSSKLCSVCGDKSTGLHYGAATCEGCKGFFKRSVQNKKVYHCSQDNCCEIDKQNRNRCQSCRFRKCISKGMLTEAVREDRMPGGRNGNSIYSNYKQRRSIIRKTKDYVEEQERRPFQSLPSGKKLIKELVEMDCLDRLINLKGLRINPSANCDIAPACKRLTRIGDEIVEQLVEWTKTLPFFDELPVEAHTHLLTQRWAELVLLSAGYYACSVFTPDSPDTTEMIDETDEISFTNPQVNLRLLQNRLSLVLGKEIPLEHVAKEAGPLVTRFTTLLHSFSNLKVSPEAYVCIKAITLLHLSADSTLDRSIIDKVNTLQDHFVKTLQIHLHQPGEDAQTTSLAQILDWLPDLRNASSVLLHSKMFYVPFLLCKNPRRLVFDE | not soluble |
| MSLKKAIAYMRFSSPGQMSGDSLNRQRRLIAEWLKVNSDYYLDTITYEDLGLSAFKGKHAQSGAFSEFLDAIEHGYILPGTTLLVESLDRLSREKVGEAIERLKLILNHGIDVITLCDNTVYNIDSLNEGHHHHHH | not soluble |
| MLVLGSGGARGYAHIGVIEELEARGYEITCIAGCSMGSVIGGIYAAGKLREYREWVESLDYLDVLRLLDVSFRLGAIRGERVFGKIHEILGEVNIEDLSIPYTAVATDLTNQQEIWFQEGCLHQAMRASAAIPSLFTPVMQGSRMLVDGGLLNPLPIVPVV | soluble |
| MSLSIAISNAIIVTQNDNRDVYRGNVKIDGNKIQYVGKDEVDGDILIDGTNKVLMPGLINTHAHVGMSASKGLFDDVDLDSFLKKTFEYDSDRTSTGIFNSAKLGMYEMIGNGITAFVDLYYSEDIIAKAAEEIGIRAFLSWVTLDKELTTQIGDPVENAENFIRNHVGNKYVVPSVGVQGIYVANDDTFRRAMDLAEKYGTILHMHLSETRKEVYDAVKKLGERPIEHLHNIGILNKRVLAAHCVWATYHEVRLLSKDGVNVSWNSISNFKLGTGGIPPIPEMMRENVNVTIGTDSNGSNNSLDMFQAMKFSAISVKNYRWDASLMKAQEILDMATRNAARALQLNAGSIEVGKLADVVLLDATIPSMIPTNEANAVSNIVYSSSPQNVDTVIIDGEIKKINGKILGFHSNKFTNSEFKEGHHHHHH | not soluble |
| MGSDKIHHHHHHKDDADAPLRFYDSKYEVPMGGRRYLGIESGNGDYSLEIGNPRIASAGIESGWSGVPAGRMIYISGILTGSTYLKVTDNATQETLTLPIKVVDYYEDLNLIHGSSSLRPNGDENLLPGVDDIFLVSNAARDAYFFKQGQRTAFSSGLELITKGTYALKQEDENKATLTLTFSLDASPATEHHFTVWGNTYLLHRLDKNLHLNWGTPPIGETRTSPAPPPAYTLEEITEGAEPGTGRQVGFILNYKEIPTGILP | not soluble |
| PVDFNGYWKMLSNENFEEYLRALDVNVALRKIANLLKPDKEIVQDGDHMIIRTLSTFRNYIMDFQVGKEFEEDLTGIDDRKCMTTVSWDGDKLQCVQKGEKEGRGWTQWIEGDELHLEMRAEGVTCKQVFKKVH | soluble |
| GVVNVVVPQYVNCPDVCHWESAIMIYLMGELVERGLQDKVVFVTIGVNPYYETIEDGKRYMESVAGDYLDKGVKWIWVLDDVEKQEELWNMFGIAVSLYCVKNDGSIIDELTYDDYLKLEESGECSFVGVNHTAGFIIVDGDGVFRYFMSPTEDGWKRGQRQVAETILQYILKLVEERK | not soluble |
| MGSDKIHHHHHHMKWEEKRDMVKIATWYYHYGWTQAQIAKKIGISRSIISKTLQRAKDLGIVEIFIKDETYYTVDLEQKLEEKFGLEEAIVVATHDMSEEEALNFLAKEAAYTLSKRIAKVKTLGISWGKTIRKFANEFPFIPHKDLTIIPLIGGMGSSDIDLHSNQICYDLKKKMKCHSKYLYAPALVEDTEMKTDLSKNKYISEVLEEGKTVDMAIVGVSSPYNHSTMEEIGYINSEDIEELRYKDVVGDINSRFFTADGKEAKTEINTHVIGLSLEELKNIPTVVALANGLQKKEALVAALNAGLIDVIVITDRMAEYILQKND | not soluble |
